Experimental data reported in patent publication US20100229252, “MEGANUCLEASE VARIANTS CLEAVING A DNA TARGET SEQUENCE FROM THE HUMAN HEMOGLOBIN BETA GENE AND USES THEREOF” (CELLECTIS, published 2010).
Where a chain is given by its changes, count along the chain named.

T1: I-CreI heterodimer HBB8.3_L3 / HBB8.4_A4 (Chlamydomonas reinhardtii, UniProt P05725;P05725 SEQ:1-167,SEQ:1-167)
T1 chain 1: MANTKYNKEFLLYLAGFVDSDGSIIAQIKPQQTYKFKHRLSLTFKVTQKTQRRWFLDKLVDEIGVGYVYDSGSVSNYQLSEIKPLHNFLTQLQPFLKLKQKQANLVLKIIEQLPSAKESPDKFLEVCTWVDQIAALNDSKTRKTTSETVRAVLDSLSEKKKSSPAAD
T1 chain 2: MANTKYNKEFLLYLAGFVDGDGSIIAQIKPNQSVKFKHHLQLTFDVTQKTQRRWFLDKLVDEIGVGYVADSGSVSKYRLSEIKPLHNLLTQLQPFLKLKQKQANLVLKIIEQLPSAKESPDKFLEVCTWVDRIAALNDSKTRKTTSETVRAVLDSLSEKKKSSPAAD

T2: I-CreI heterodimer HBB8.3_J3 / HBB8.4_B4 (Chlamydomonas reinhardtii, UniProt P05725;P05725 SEQ:1-167,SEQ:1-167)
T2 chain 1: T1 chain 1 with S20G, K45Q, Y69A, Q78R, F88L
T2 chain 2: T1 chain 2 with G20S, V34T, H39R, L88F, R132Q

T3: I-CreI heterodimer HBB8.3_A3 / HBB8.4_C4 (Chlamydomonas reinhardtii, UniProt P05725;P05725 SEQ:1-167,SEQ:1-167)
T3 chain 1: T1 chain 1 with S20G, K45Q, L59Q, Y69A, Q78R, F88L
T3 chain 2: T1 chain 2 with G20S, H39R, L88F, R132Q

T4: I-CreI heterodimer HBB8.3_I3 / HBB8.4_C4 (Chlamydomonas reinhardtii, UniProt P05725;P05725 SEQ:1-167,SEQ:1-167)
T4 chain 1: T1 chain 1 with S20G, F55L, Q78Y
T4 chain 2: T1 chain 2 with G20S, H39R, L88F, R132Q

T5: I-CreI heterodimer HBB8.3_J3 / HBB8.4_C4 (Chlamydomonas reinhardtii, UniProt P05725;P05725 SEQ:1-167,SEQ:1-167)
T5 chain 1: T1 chain 1 with S20G, K45Q, Y69A, Q78R, F88L
T5 chain 2: T1 chain 2 with G20S, H39R, L88F, R132Q

T6: I-CreI heterodimer HBB8.3_I3 / HBB8.4_A4 (Chlamydomonas reinhardtii, UniProt P05725;P05725 SEQ:1-167,SEQ:1-167)
T6 chain 1: T1 chain 1 with S20G, F55L, Q78Y
T6 chain 2: T1 chain 2

T7: I-CreI heterodimer HBB8.3_B3 / HBB8.4_C4 (Chlamydomonas reinhardtii, UniProt P05725;P05725 SEQ:1-167,SEQ:1-167)
T7 chain 1: T1 chain 1 with S20G, Q78Y, V106A, L153Q
T7 chain 2: T1 chain 2 with G20S, H39R, L88F, R132Q

B1: HBB8 (dsDNA)
DNA 1: CTGACTCCTGTGGAGAAGTCTG
DNA 2: CAGACTTCTCCACAGGAGTCAG
B2: HBB6 (dsDNA)
DNA 1: CTGACTCCTGAGGAGAAGTCTG
DNA 2: CAGACTTCTCCTCAGGAGTCAG

Columns and labels:
Test in all cases: cell_activity; CHO extrachromosomal LacZ assay
[1] = molecular target: T1, I-CreI heterodimer HBB8.3_L3 / HBB8.4_A4
[2] = molecular target: T2, I-CreI heterodimer HBB8.3_J3 / HBB8.4_B4
[3] = molecular target: T3, I-CreI heterodimer HBB8.3_A3 / HBB8.4_C4
[4] = molecular target: T4, I-CreI heterodimer HBB8.3_I3 / HBB8.4_C4
[5] = molecular target: T5, I-CreI heterodimer HBB8.3_J3 / HBB8.4_C4
[6] = molecular target: T6, I-CreI heterodimer HBB8.3_I3 / HBB8.4_A4
[7] = molecular target: T7, I-CreI heterodimer HBB8.3_B3 / HBB8.4_C4

Row | Binder | activity [1] [absorbance units] | activity [2] [absorbance units] | activity [3] [absorbance units] | activity [4] [absorbance units] | activity [5] [absorbance units] | activity [6] [absorbance units] | activity [7] [absorbance units]
1 | B1 | 2.32 | 2.47 | 1.56 | 2.42 | 2.21 | 1.15 | 2.32
2 | B2 | 1.96 | 1.75 | 0.68 | 2.36 | 1.88 | 0.45 | 1.86
